Numbering of substitutions follows the chain as printed. In names and notes the source's numbering stands.
B1: long-acting GDF15 fusion protein (dimer) FM4-1 + Fc_hole (ΔN2, N56S, D103S) (Fc fusion)
chain 1: APALAGGPSVFLFPPKPKDTLMISRTPEVTCVVVDVSHEDPEVKFNWYVDGVEVHNAKTKPREEQYNSTYRVVSVLTVLHQDWLNGKEYKCKVSNKALPAPIEKTISKAKGQPREPQVYTLPPSREEMTKNQVSLWCLVKGFYPSDIAVEWESNGQPENNYKTTPPVLDSDGSFFLYSKLTVDKSRWQQGNVFSCSVMHEALHNHYTQKSLSLSPGKGGGGSGGGGSGGGGSGGGGSGGGGSNGDHCPLGPGRCCRLHTVRASLEDLGWADWVLSPREVQVTMCIGACPSQFRAASMHAQIKTSLHRLKPDTVPAPCCVPASYNPMVLIQKTDTGVSLQTYDSLLAKDCHCI
chain 2: not shown
B2: long-acting GDF15 fusion protein (dimer) FM4-3 + Fc_hole (ΔN2, N56L) (Fc fusion)
chain 1: B1 chain 1 with S296L, S343D
chain 2: not shown
B3: long-acting GDF15 fusion protein (dimer) FM4-2 + Fc_hole (ΔN2, D103L) (Fc fusion)
chain 1: B1 chain 1 with S296N, S343L
chain 2: not shown
B4: long-acting GDF15 fusion protein (dimer) FM9-1 + Fc_hole (ΔN2, S64R; linker GS(G4S)3) (Fc fusion)
chain 1: APEAAGGPSVFLFPPKPKDTLMISRTPEVTCVVVDVSHEDPEVKFNWYVDGVEVHNAKTKPREEQYASTYRVVSVLTVLHQDWLNGKEYKCKVSNKALPAPIEKTISKAKGQPREPQVYTLPPSREEMTKNQVSLWCLVKGFYPSDIAVEWESNGQPENNYKTTPPVLDSDGSFFLYSKLTVDKSRWQQGNVFSCSVMHEALHNHYTQKSLSLSPGKGSGGGGSGGGGSGGGGSNGDHCPLGPGRCCRLHTVRASLEDLGWADWVLSPREVQVTMCIGACPSQFRAANMHAQIKTRLHRLKPDTVPAPCCVPASYNPMVLIQKTDTGVSLQTYDDLLAKDCHCI
chain 2: APEAAGGPSVFLFPPKPKDTLMISRTPEVTCVVVDVSHEDPEVKFNWYVDGVEVHNAKTKPREEQYASTYRVVSVLTVLHQDWLNGKEYKCKVSNKALPAPIEKTISKAKGQPREPQVYTLPPSREEMTKNQVSLSCAVKGFYPSDIAVEWESNGQPENNYKTTPPVLDSDGSFFLVSKLTVDKSRWQQGNVFSCSVMHEALHNHYTQKSLSLSPGK
B5: long-acting GDF15 fusion protein (dimer) FM9-5 + Fc_hole (ΔN2, S64R; linker GSGGSS(PT)10) (Fc fusion)
chain 1: APEAAGGPSVFLFPPKPKDTLMISRTPEVTCVVVDVSHEDPEVKFNWYVDGVEVHNAKTKPREEQYASTYRVVSVLTVLHQDWLNGKEYKCKVSNKALPAPIEKTISKAKGQPREPQVYTLPPSREEMTKNQVSLWCLVKGFYPSDIAVEWESNGQPENNYKTTPPVLDSDGSFFLYSKLTVDKSRWQQGNVFSCSVMHEALHNHYTQKSLSLSPGKGSGGSSPTPTPTPTPTPTPTPTPTPTNGDHCPLGPGRCCRLHTVRASLEDLGWADWVLSPREVQVTMCIGACPSQFRAANMHAQIKTRLHRLKPDTVPAPCCVPASYNPMVLIQKTDTGVSLQTYDDLLAKDCHCI
chain 2: B4 chain 2
B6: long-acting GDF15 fusion protein (dimer) FM9-2 + Fc_hole (ΔN2, S64R; linker GS(G4S)5) (Fc fusion)
chain 1: APEAAGGPSVFLFPPKPKDTLMISRTPEVTCVVVDVSHEDPEVKFNWYVDGVEVHNAKTKPREEQYASTYRVVSVLTVLHQDWLNGKEYKCKVSNKALPAPIEKTISKAKGQPREPQVYTLPPSREEMTKNQVSLWCLVKGFYPSDIAVEWESNGQPENNYKTTPPVLDSDGSFFLYSKLTVDKSRWQQGNVFSCSVMHEALHNHYTQKSLSLSPGKGSGGGGSGGGGSGGGGSGGGGSGGGGSNGDHCPLGPGRCCRLHTVRASLEDLGWADWVLSPREVQVTMCIGACPSQFRAANMHAQIKTRLHRLKPDTVPAPCCVPASYNPMVLIQKTDTGVSLQTYDDLLAKDCHCI
chain 2: B4 chain 2
B7: long-acting GDF15 fusion protein (dimer) FM9-6 + Fc_hole (ΔN2, S64R; linker GS(EAAAK)5) (Fc fusion)
chain 1: APEAAGGPSVFLFPPKPKDTLMISRTPEVTCVVVDVSHEDPEVKFNWYVDGVEVHNAKTKPREEQYASTYRVVSVLTVLHQDWLNGKEYKCKVSNKALPAPIEKTISKAKGQPREPQVYTLPPSREEMTKNQVSLWCLVKGFYPSDIAVEWESNGQPENNYKTTPPVLDSDGSFFLYSKLTVDKSRWQQGNVFSCSVMHEALHNHYTQKSLSLSPGKGSEAAAKEAAAKEAAAKEAAAKEAAAKNGDHCPLGPGRCCRLHTVRASLEDLGWADWVLSPREVQVTMCIGACPSQFRAANMHAQIKTRLHRLKPDTVPAPCCVPASYNPMVLIQKTDTGVSLQTYDDLLAKDCHCI
chain 2: B4 chain 2
B8: long-acting GDF15 fusion protein (dimer) FM9-4 + Fc_hole (ΔN2, S64R; linker GS(EEEA)6) (Fc fusion)
chain 1: APEAAGGPSVFLFPPKPKDTLMISRTPEVTCVVVDVSHEDPEVKFNWYVDGVEVHNAKTKPREEQYASTYRVVSVLTVLHQDWLNGKEYKCKVSNKALPAPIEKTISKAKGQPREPQVYTLPPSREEMTKNQVSLWCLVKGFYPSDIAVEWESNGQPENNYKTTPPVLDSDGSFFLYSKLTVDKSRWQQGNVFSCSVMHEALHNHYTQKSLSLSPGKGSEEEAEEEAEEEAEEEAEEEAEEEANGDHCPLGPGRCCRLHTVRASLEDLGWADWVLSPREVQVTMCIGACPSQFRAANMHAQIKTRLHRLKPDTVPAPCCVPASYNPMVLIQKTDTGVSLQTYDDLLAKDCHCI
chain 2: B4 chain 2
B9: long-acting GDF15 fusion protein (dimer) FM9-3 + Fc_hole (ΔN2, S64R; linker GS(G4S)7) (Fc fusion)
chain 1: APEAAGGPSVFLFPPKPKDTLMISRTPEVTCVVVDVSHEDPEVKFNWYVDGVEVHNAKTKPREEQYASTYRVVSVLTVLHQDWLNGKEYKCKVSNKALPAPIEKTISKAKGQPREPQVYTLPPSREEMTKNQVSLWCLVKGFYPSDIAVEWESNGQPENNYKTTPPVLDSDGSFFLYSKLTVDKSRWQQGNVFSCSVMHEALHNHYTQKSLSLSPGKGSGGGGSGGGGSGGGGSGGGGSGGGGSGGGGSGGGGSNGDHCPLGPGRCCRLHTVRASLEDLGWADWVLSPREVQVTMCIGACPSQFRAANMHAQIKTRLHRLKPDTVPAPCCVPASYNPMVLIQKTDTGVSLQTYDDLLAKDCHCI
chain 2: B4 chain 2
B10: long-acting GDF15 fusion protein (dimer) FM2 + Fc_hole (ΔN3, G4N, D5S, H6T) (Fc fusion)
chain 1: APALAGGPSVFLFPPKPKDTLMISRTPEVTCVVVDVSHEDPEVKFNWYVDGVEVHNAKTKPREEQYNSTYRVVSVLTVLHQDWLNGKEYKCKVSNKALPAPIEKTISKAKGQPREPQVYTLPPSREEMTKNQVSLWCLVKGFYPSDIAVEWESNGQPENNYKTTPPVLDSDGSFFLYSKLTVDKSRWQQGNVFSCSVMHEALHNHYTQKSLSLSPGKGGGGSGGGGSGGGGSGGGGSGGGGSNSTCPLGPGRCCRLHTVRASLEDLGWADWVLSPREVQVTMCIGACPSQFRAANMHAQIKTSLHRLKPDTVPAPCCVPASYNPMVLIQKTDTGVSLQTYDDLLAKDCHCI
chain 2: not shown
B11: long-acting GDF15 fusion protein (dimer) FM11 + Fc_hole (ΔN3, G4N, D5S, H6T, S64R) (Fc fusion)
chain 1: B10 chain 1 with S303R
chain 2: not shown
B12: long-acting GDF15 fusion protein (dimer) FM1 + Fc_hole (ΔN3, WS insertion, G4N, D5S, H6T) (Fc fusion)
chain 1: APALAGGPSVFLFPPKPKDTLMISRTPEVTCVVVDVSHEDPEVKFNWYVDGVEVHNAKTKPREEQYNSTYRVVSVLTVLHQDWLNGKEYKCKVSNKALPAPIEKTISKAKGQPREPQVYTLPPSREEMTKNQVSLWCLVKGFYPSDIAVEWESNGQPENNYKTTPPVLDSDGSFFLYSKLTVDKSRWQQGNVFSCSVMHEALHNHYTQKSLSLSPGKGGGGSGGGGSGGGGSGGGGSGGGGSWSNSTCPLGPGRCCRLHTVRASLEDLGWADWVLSPREVQVTMCIGACPSQFRAANMHAQIKTSLHRLKPDTVPAPCCVPASYNPMVLIQKTDTGVSLQTYDDLLAKDCHCI
chain 2: not shown
B13: long-acting GDF15 fusion protein (dimer) FM10 + Fc_hole (ΔN3, WS insertion, G4N, D5S, H6T, S64R) (Fc fusion)
chain 1: B12 chain 1 with S305R
chain 2: not shown
B14: long-acting GDF15 fusion protein (dimer) FM12 + Fc_hole (ΔN2, R21N, S64R) (Fc fusion)
chain 1: B1 chain 1 with R261N, S296N, S304R, S343D
chain 2: not shown
B15: long-acting GDF15 fusion protein (dimer) FM3 + Fc_hole (ΔN2, R21N) (Fc fusion)
chain 1: B1 chain 1 with R261N, S296N, S343D
chain 2: not shown

Target: T1, GDF15 receptors GFRAL and RET, overexpressed together on HEK293 cells (UniProt Q6UXV0 19-394; P07949 29-1114, limits assumed)
Assay: cell-based or functional assay

T1 sequence (Q6UXV0 19-394 limits assumed, chain 1 of 2): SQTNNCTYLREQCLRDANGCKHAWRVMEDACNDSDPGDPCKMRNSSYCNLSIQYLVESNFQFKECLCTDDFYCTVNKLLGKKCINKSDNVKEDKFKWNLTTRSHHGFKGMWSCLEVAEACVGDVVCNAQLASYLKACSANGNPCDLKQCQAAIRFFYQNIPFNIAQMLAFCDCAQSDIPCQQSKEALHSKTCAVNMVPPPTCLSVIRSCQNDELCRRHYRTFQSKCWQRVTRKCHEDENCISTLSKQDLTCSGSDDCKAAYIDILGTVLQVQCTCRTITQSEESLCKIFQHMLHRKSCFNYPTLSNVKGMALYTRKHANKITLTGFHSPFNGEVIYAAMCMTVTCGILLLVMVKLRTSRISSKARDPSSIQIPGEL
T1 sequence (P07949 29-1114 limits assumed, chain 2 of 2): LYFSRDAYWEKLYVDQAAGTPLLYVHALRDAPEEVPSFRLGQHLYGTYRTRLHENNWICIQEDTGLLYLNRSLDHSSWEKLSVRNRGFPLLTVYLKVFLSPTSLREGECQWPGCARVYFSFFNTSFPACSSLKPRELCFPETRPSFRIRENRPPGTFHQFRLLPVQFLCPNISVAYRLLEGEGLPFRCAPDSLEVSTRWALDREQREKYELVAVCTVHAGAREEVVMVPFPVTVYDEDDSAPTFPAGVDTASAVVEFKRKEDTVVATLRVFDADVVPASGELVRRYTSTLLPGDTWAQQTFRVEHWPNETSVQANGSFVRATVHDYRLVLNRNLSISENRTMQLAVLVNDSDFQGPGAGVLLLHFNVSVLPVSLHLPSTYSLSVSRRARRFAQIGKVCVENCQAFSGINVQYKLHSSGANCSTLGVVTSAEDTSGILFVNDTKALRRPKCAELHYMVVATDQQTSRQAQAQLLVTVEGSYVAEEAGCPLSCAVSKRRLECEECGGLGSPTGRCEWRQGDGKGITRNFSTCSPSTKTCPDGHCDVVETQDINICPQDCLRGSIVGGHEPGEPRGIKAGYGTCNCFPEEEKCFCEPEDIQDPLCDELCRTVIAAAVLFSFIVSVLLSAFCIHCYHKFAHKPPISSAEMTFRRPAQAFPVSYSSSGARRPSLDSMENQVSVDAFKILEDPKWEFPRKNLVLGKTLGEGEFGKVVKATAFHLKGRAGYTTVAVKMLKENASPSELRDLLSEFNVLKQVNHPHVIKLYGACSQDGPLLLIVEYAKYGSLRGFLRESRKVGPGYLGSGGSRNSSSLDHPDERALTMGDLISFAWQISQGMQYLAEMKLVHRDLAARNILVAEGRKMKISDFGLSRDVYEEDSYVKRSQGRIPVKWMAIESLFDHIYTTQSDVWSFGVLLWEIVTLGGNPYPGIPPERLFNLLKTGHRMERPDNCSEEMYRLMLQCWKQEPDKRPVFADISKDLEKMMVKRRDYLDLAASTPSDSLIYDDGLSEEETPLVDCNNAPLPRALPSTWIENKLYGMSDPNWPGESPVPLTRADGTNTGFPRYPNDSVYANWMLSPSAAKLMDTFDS

Binder | EC50 [nM] | Emax (%) [relative to FWT 100%] [%]
B1 | 8.9 | 86.4
B2 | 140 | 34.3
B3 | 10.6 | 110

Target: T1, GDF15 receptors GFRAL and RET, …
Assay: cell-based or functional assay
Remark: another data set of the same source

Binder | EC50 [nM] | Emax (%)
B4 | 9 | 97.6
B5 | 5.3 | 100
B6 | 9.5 | 111
B7 | 6.3 | 100
B8 | 23.6 | 128
B9 | 9.3 | 95.6

Target: T1, GDF15 receptors GFRAL and RET, …
Assay: cell-based or functional assay
Remark: another data set of the same source

Binder | EC50 [nM] | Emax (%)
B10 | 3.9 | 100
B11 | 2.9 | 270
B12 | 1.7 | 100
B13 | 2.3 | 267
B14 | 5.9 | 221
B15 | 3.3 | 100

Reference: US20230002460A1 (YUHAN, published 2023)
